Our source for the activity values is US20200048631.

One data set deals with Gal4-VP16. The data set can be described thus: cell_activity. Conditions: 0.5 ug Gal4 plasmid, no tTA.
Data set [1] has as its system tTA (tetracycline transactivator, TetR-VP16). The data set can be described thus: cell_activity. Conditions: 0.5 ug tTA plasmid, no Gal4.
[2] abbreviates: 0.1 without TF, 16.0 with both TFs at 0.5 ug.

Take “H1 hybrid promoter pT2U2T2U2 (TetO and UAS, CMV minimal promoter)”: the activity with Gal4-VP16 (<0.1 without TF, HEK293FT, synergy with tTA) worked out at 9.2 % ON cells; in data set [1] (<0.1 without TF, HEK293FT, synergy with Gal4) it was 3.1 % ON cells.

“H2 hybrid promoter pT2U3 (TetO and UAS, CMV minimal promoter)”: the activity was determined as 4 % ON cells with Gal4-VP16 (setting [2]) and 0.8 % ON cells in data set [1] (setting [2]).
